The record followed here is article PMC10843171.

In one experiment the target is human FcRn (human) (UniProt P55899). Nature of the experiment: not stated.
Experiment [1] concerns the target cyno FcRn (cynomolgus monkey) (UniProt Q8SPV9). Nature of the experiment: not stated.
Experiment [2] deals with PF-07209960, anti-human PD-1–IL15 mutein fusion protein (human). Put plainly: SPR; Biacore T200; fusion protein captured via anti-human Fc on a CM4 chip, receptor injected as analyte; 37°C; 10 mM HEPES, 150 mM NaCl, 0.05% Tween-20, pH 7.4, 1 mg/mL BSA; steady-state 1:1 Langmuir fit. (In general: In SPR one partner is held on a chip, and binding of the other changes the refractive index at the surface.)

Sequence of UniProt P55899 (P55899 whole entry, looked up, tested part not stated): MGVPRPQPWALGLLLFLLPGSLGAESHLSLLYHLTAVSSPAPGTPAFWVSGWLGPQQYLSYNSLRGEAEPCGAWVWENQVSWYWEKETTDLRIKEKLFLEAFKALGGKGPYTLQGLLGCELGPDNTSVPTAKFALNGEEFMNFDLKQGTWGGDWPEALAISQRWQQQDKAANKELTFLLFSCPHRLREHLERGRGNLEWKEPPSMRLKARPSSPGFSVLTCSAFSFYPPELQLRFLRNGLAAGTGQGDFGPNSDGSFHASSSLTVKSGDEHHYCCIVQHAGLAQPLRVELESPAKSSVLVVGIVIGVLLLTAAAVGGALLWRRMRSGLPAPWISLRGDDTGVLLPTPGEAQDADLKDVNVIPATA
Sequence of UniProt Q8SPV9 (Q8SPV9 whole entry, looked up, the tested form may be a part): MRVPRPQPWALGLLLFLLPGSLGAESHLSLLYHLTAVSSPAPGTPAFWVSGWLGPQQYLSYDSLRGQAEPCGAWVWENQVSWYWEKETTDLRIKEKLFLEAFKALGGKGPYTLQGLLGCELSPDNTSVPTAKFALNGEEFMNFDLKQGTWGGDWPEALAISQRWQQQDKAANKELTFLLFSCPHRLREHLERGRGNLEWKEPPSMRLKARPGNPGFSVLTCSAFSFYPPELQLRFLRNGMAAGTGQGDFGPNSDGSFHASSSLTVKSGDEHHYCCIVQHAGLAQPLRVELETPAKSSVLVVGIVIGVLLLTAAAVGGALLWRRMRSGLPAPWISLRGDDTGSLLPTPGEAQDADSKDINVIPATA

As for “PF-07209960, anti-human PD-1–IL15 mutein fusion protein”, the Kd – broadly, the free concentration of one partner at which half of the binding sites on the other are occupied at equilibrium, for simple one-to-one binding – is 1.04 µM with human FcRn (human) and 0.426 µM in experiment [1].
For the substance “human IL-2Rβ (from UniProt P14784 27-551) (receptor)”, in experiment [2], the Kd turned out to be 4 µM.
“monkey IL-2Rβ (from UniProt Q38J85 27-551) (receptor)” had a dissociation constant (Kd) in experiment [2] of 2.4 µM.
